Experimental data from article PMC7655802, “Antibiotic-induced DNA damage results in a controlled loss of pH homeostasis and genome instability”.

B1: 90mer oligonucleotide (ssDNA)
DNA: AAATCAATCTAAAGTATATATGAGTAAACTTGGTCTGACAGTTACCAATGCTTAATCAGTGAGGCACCTATCTCAGCGATCTGTCTATTT
B2: dT79 (ssDNA)
DNA: TTTTTTTTTTTTTTTTTTTTTTTTTTTTTTTTTTTTTTTTTTTTTTTTTTTTTTTTTTTTTTTTTTTTTTTTTTTTTTT

Tests used:
RecA [1] = molecular target: T1, RecA (UniProt P0A7G6 2-353); assay: EMSA (glutaraldehyde-fixed); pH 5; 1 mM ATP, 10 mM Mg2+; EMSA: 50 mM phosphate/citrate pH 5-8, 50 mM NaCl, 10 mM MgCl2, 1 mM ATP, 25 C, 5 min, then 0.125% glutaraldehyde; stopped-flow: 20 nM dT79, 1 mM ATP, 10 mM MgCl2; settings: protein: commercial; label: 5'-FITC; single strand
T1 sequence (P0A7G6 2-353): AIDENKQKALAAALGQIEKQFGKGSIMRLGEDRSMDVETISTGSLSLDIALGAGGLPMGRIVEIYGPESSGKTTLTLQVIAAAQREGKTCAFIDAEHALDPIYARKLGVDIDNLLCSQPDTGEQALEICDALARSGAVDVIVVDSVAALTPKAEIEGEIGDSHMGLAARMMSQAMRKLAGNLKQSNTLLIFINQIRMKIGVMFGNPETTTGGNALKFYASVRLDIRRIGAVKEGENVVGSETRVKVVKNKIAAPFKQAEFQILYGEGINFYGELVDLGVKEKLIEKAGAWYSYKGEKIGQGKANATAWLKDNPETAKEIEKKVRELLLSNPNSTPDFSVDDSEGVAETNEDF

RecA [2] = molecular target: T1, RecA; assay: stopped-flow fluorescence; pH 5; 1 mM ATP, 10 mM Mg2+; binds in less than 1 s; EMSA: 50 mM phosphate/citrate pH 5-8, 50 mM NaCl, 10 mM MgCl2, 1 mM ATP, 25 C, 5 min, then 0.125% glutaraldehyde; stopped-flow: 20 nM dT79, 1 mM ATP, 10 mM MgCl2; settings: protein: commercial; label: 5'-Cy3; single strand

| Binder | binding signal (RecA [1]) | binding result (RecA [2]) |
| --- | --- | --- |
| B1 | ~10 fold higher affinity at pH 5 than at pH 8 |  |
| B2 |  | binds |
